Results from patent US6541450B1, “Parathyroid hormone analogues for the treatment of osteoporosis” (National Research Council of Canada, priority 1994, dated 2003).
“Also recorded” adds a separate entry of the source. Where a SMILES comes first, the peptide text is derived from it. Bridges are numbered along the chain shown (N, C = ends). Where no end group is shown, it is not given here. [ ]: non-standard residue; d: D form. Nle = CCCC[C@H](N)C(=O)O

Legend:
[1] = test system: anesthetized female Sprague-Dawley rats; assay: Hypotensive effect, tail artery pressure in anaesthetized rats
Protocol: Female Sprague-Dawley rats (weighing over 290 g) were anaesthetized with intraperitoneally injected sodium pentobarbital (65 mg/kg body weight). Rectal temperature was monitored with a YS1402 thermistor (Yellow Springs Instrument Co., Inc. Yellow Springs, Ohio) and maintained between 36.0 and 38.5° C. throughout the experiment. Ear pinna temperature was also monitored using a YSi banjo thermistor. The tail artery was exposed to cannulated with a Jelco 25-gIV catheter (Johnson and Johnson Medical Inc., Arlington, Tex.) and connected to a Statham pressure transducer, the signals from which were recorded digitally with a Biopac Systems MP100 Monitor (Harvard Instruments, Saint Laurent, QC, Canada). For intravenous injection of PTH or one of its fragments, a femoral vein was also exposed. After surgery, the rat was allowed to stabilize for 8 min after which PTH or one of its fragments (dissolved in acidified saline containing 0.001 N HCl) was injected into the femoral vein or under the skin of the abdomen. Data were collected for 12 min after intravenous injection or for 22 min after subcutaneous injection.

PTH receptor = PTH receptor (rat (ROS 17/2 rat osteosarcoma cell …, UniProt P25961)); assay: cell-based or functional assay
[2] = intravenous, 0.8 nmol/100 g of body weight

Molecule	Adenylyl Cyclase (EC50) (PTH receptor) [nM]	other results
hPTH-(7-84) [reference compound]		hypotensive action, in words ([1]; intravenous injection): not significantly hypotensive; also recorded: did not significantly affect tail artery pressure; reduction of tail artery pressure [1, 2]: 3.28±1.0 mm Hg; time to maximum drop in tail artery pressure [1, 2]: 9.8 ± 2.0 min
CC[C@H](C)[C@H](NC(=O)[C@H](CCC(=O)O)NC(=O)[C@H](CO)NC(=O)[C@@H](NC(=O)[C@@H](N)CO)C(C)C)C(=O)N[C@@H](CCC(N)=O)C(=O)N[C@@H](CC(C)C)C(=O)N[C@@H](CCSC)C(=O)N[C@@H](Cc1c[nH]cn1)C(=O)N[C@@H](CC(N)=O)C(=O)N[C@@H](CC(C)C)C(=O)NCC(=O)N[C@@H](CCCCN)C(=O)N[C@@H](Cc1c[nH]cn1)C(=O)N[C@@H](CC(C)C)C(=O)N[C@@H](CC(N)=O)C(=O)N[C@@H](CO)C(=O)N[C@@H](CCSC)C(=O)N[C@@H](CCC(=O)O)C(=O)N[C@@H](CCCNC(=N)N)C(=O)N[C@H](C(=O)N[C@H]1CCC(=O)NCCCC[C@@H](C(=O)N[C@@H](CC(C)C)C(=O)N[C@@H](CC(C)C)C(=O)N[C@@H](CCC(N)=O)C(=O)N[C@@H](CC(=O)O)C(N)=O)NC(=O)[C@H](CCCNC(=N)N)NC(=O)[C@H](CC(C)C)NC(=O)[C@H](Cc2c[nH]c3ccccc23)NC1=O)C(C)C [compound 8, [Leu^27]cyclo(Glu^22Lys^26)-hPTH-(1-30)-NH2] (H-SVSEIQLMHNLGKHLNSMERVEWLRKLLQD-NH2; lactam 22-26)		total blood pressure drop versus other analogues ([1]; subcutaneously or intravenously, 0.8 nmol/100 g of body weight): not significantly different (p>0.05)
Ac-SVSEIQLMHNLGKHLNSMERVEWLRKLLQDV-NH2 (lactam 22-26; SMILES CC[C@H](C)[C@H](NC(=O)[C@H](CCC(=O)O)NC(=O)[C@H](CO)NC(=O)[C@@H](NC(=O)[C@H](CO)NC(C)=O)C(C)C)C(=O)N[C@@H](CCC(N)=O)C(=O)N[C@@H](CC(C)C)C(=O)N[C@@H](CCSC)C(=O)N[C@@H](Cc1c[nH]cn1)C(=O)N[C@@H](CC(N)=O)C(=O)N[C@@H](CC(C)C)C(=O)NCC(=O)N[C@@H](CCCCN)C(=O)N[C@@H](Cc1c[nH]cn1)C(=O)N[C@@H](CC(C)C)C(=O)N[C@@H](CC(N)=O)C(=O)N[C@@H](CO)C(=O)N[C@@H](CCSC)C(=O)N[C@@H](CCC(=O)O)C(=O)N[C@@H](CCCNC(=N)N)C(=O)N[C@H](C(=O)N[C@H]1CCC(=O)NCCCC[C@@H](C(=O)N[C@@H](CC(C)C)C(=O)N[C@@H](CC(C)C)C(=O)N[C@@H](CCC(N)=O)C(=O)N[C@@H](CC(=O)O)C(=O)N[C@H](C(N)=O)C(C)C)NC(=O)[C@H](CCCNC(=N)N)NC(=O)[C@H](CC(C)C)NC(=O)[C@H](Cc2c[nH]c3ccccc23)NC1=O)C(C)C) [α-acetyl-[Leu^27]cyclo(Glu^22-Lys^26)-hPTH-(1-31)-NH2]	24	
SVSEIQLMHNLGKHLNSMERVEWLRKALQDV-NH2 (lactam 22-26; N-terminus assumed; SMILES CC[C@H](C)[C@H](NC(=O)[C@H](CCC(=O)O)NC(=O)[C@H](CO)NC(=O)[C@@H](NC(=O)[C@@H](N)CO)C(C)C)C(=O)N[C@@H](CCC(N)=O)C(=O)N[C@@H](CC(C)C)C(=O)N[C@@H](CCSC)C(=O)N[C@@H](Cc1c[nH]cn1)C(=O)N[C@@H](CC(N)=O)C(=O)N[C@@H](CC(C)C)C(=O)NCC(=O)N[C@@H](CCCCN)C(=O)N[C@@H](Cc1c[nH]cn1)C(=O)N[C@@H](CC(C)C)C(=O)N[C@@H](CC(N)=O)C(=O)N[C@@H](CO)C(=O)N[C@@H](CCSC)C(=O)N[C@@H](CCC(=O)O)C(=O)N[C@@H](CCCNC(=N)N)C(=O)N[C@H](C(=O)N[C@H]1CCC(=O)NCCCC[C@@H](C(=O)N[C@@H](C)C(=O)N[C@@H](CC(C)C)C(=O)N[C@@H](CCC(N)=O)C(=O)N[C@@H](CC(=O)O)C(=O)N[C@H](C(N)=O)C(C)C)NC(=O)[C@H](CCCNC(=N)N)NC(=O)[C@H](CC(C)C)NC(=O)[C@H](Cc2c[nH]c3ccccc23)NC1=O)C(C)C) [[Ala^27]cyclo(Glu^22-Lys^26)-hPTH-(1-31)-NH2]	9	
SVSEIQLMHNLGKHLNSMERVEWLRKKLQDV-NH2 [hPTH-(1-31)-NH2]	20	
SVSEIQLMHNLGKHLNSMERVEWLRKKLQDV-NH2 (lactam 22-26; N-terminus assumed; SMILES CC[C@H](C)[C@H](NC(=O)[C@H](CCC(=O)O)NC(=O)[C@H](CO)NC(=O)[C@@H](NC(=O)[C@@H](N)CO)C(C)C)C(=O)N[C@@H](CCC(N)=O)C(=O)N[C@@H](CC(C)C)C(=O)N[C@@H](CCSC)C(=O)N[C@@H](Cc1c[nH]cn1)C(=O)N[C@@H](CC(N)=O)C(=O)N[C@@H](CC(C)C)C(=O)NCC(=O)N[C@@H](CCCCN)C(=O)N[C@@H](Cc1c[nH]cn1)C(=O)N[C@@H](CC(C)C)C(=O)N[C@@H](CC(N)=O)C(=O)N[C@@H](CO)C(=O)N[C@@H](CCSC)C(=O)N[C@@H](CCC(=O)O)C(=O)N[C@@H](CCCNC(=N)N)C(=O)N[C@H](C(=O)N[C@H]1CCC(=O)NCCCC[C@@H](C(=O)N[C@@H](CCCCN)C(=O)N[C@@H](CC(C)C)C(=O)N[C@@H](CCC(N)=O)C(=O)N[C@@H](CC(=O)O)C(=O)N[C@H](C(N)=O)C(C)C)NC(=O)[C@H](CCCNC(=N)N)NC(=O)[C@H](CC(C)C)NC(=O)[C@H](Cc2c[nH]c3ccccc23)NC1=O)C(C)C) [cyclo(Glu^22-Lys^26)-hPTH-(1-31)-NH2]	17	
SVSEIQL[Nle]HNLGKHLNS[Nle]ERVEWLRKLLQDV-NH2 (lactam 22-26; N-terminus assumed; SMILES CCCC[C@H](NC(=O)[C@H](CO)NC(=O)[C@H](CC(N)=O)NC(=O)[C@H](CC(C)C)NC(=O)[C@H](Cc1c[nH]cn1)NC(=O)[C@H](CCCCN)NC(=O)CNC(=O)[C@H](CC(C)C)NC(=O)[C@H](CC(N)=O)NC(=O)[C@H](Cc1c[nH]cn1)NC(=O)[C@H](CCCC)NC(=O)[C@H](CC(C)C)NC(=O)[C@H](CCC(N)=O)NC(=O)[C@@H](NC(=O)[C@H](CCC(=O)O)NC(=O)[C@H](CO)NC(=O)[C@@H](NC(=O)[C@@H](N)CO)C(C)C)[C@@H](C)CC)C(=O)N[C@@H](CCC(=O)O)C(=O)N[C@@H](CCCNC(=N)N)C(=O)N[C@H](C(=O)N[C@H]1CCC(=O)NCCCC[C@@H](C(=O)N[C@@H](CC(C)C)C(=O)N[C@@H](CC(C)C)C(=O)N[C@@H](CCC(N)=O)C(=O)N[C@@H](CC(=O)O)C(=O)N[C@H](C(N)=O)C(C)C)NC(=O)[C@H](CCCNC(=N)N)NC(=O)[C@H](CC(C)C)NC(=O)[C@H](Cc2c[nH]c3ccccc23)NC1=O)C(C)C) [[Nle^8,18, Leu^27]cyclo(Glu^22-Lys^26)-hPTH-(1-31)-NH2]	6	
SVSEIQLMHNLGKHLNSMERVEWLRK[Nle]LQDV-NH2 (lactam 22-26; N-terminus assumed; SMILES CCCC[C@H](NC(=O)[C@@H]1CCCCNC(=O)CC[C@H](NC(=O)[C@@H](NC(=O)[C@H](CCCNC(=N)N)NC(=O)[C@H](CCC(=O)O)NC(=O)[C@H](CCSC)NC(=O)[C@H](CO)NC(=O)[C@H](CC(N)=O)NC(=O)[C@H](CC(C)C)NC(=O)[C@H](Cc2c[nH]cn2)NC(=O)[C@H](CCCCN)NC(=O)CNC(=O)[C@H](CC(C)C)NC(=O)[C@H](CC(N)=O)NC(=O)[C@H](Cc2c[nH]cn2)NC(=O)[C@H](CCSC)NC(=O)[C@H](CC(C)C)NC(=O)[C@H](CCC(N)=O)NC(=O)[C@@H](NC(=O)[C@H](CCC(=O)O)NC(=O)[C@H](CO)NC(=O)[C@@H](NC(=O)[C@@H](N)CO)C(C)C)[C@@H](C)CC)C(C)C)C(=O)N[C@@H](Cc2c[nH]c3ccccc23)C(=O)N[C@@H](CC(C)C)C(=O)N[C@@H](CCCNC(=N)N)C(=O)N1)C(=O)N[C@@H](CC(C)C)C(=O)N[C@@H](CCC(N)=O)C(=O)N[C@@H](CC(=O)O)C(=O)N[C@H](C(N)=O)C(C)C) [[Nle^27]cyclo(Glu^22-Lys^26)-hPTH-(1-31)-NH2]	9	
SVSEIQLMHNLGKHLNSMERVEWLRKYLQDV-NH2 (lactam 22-26; N-terminus assumed; SMILES CC[C@H](C)[C@H](NC(=O)[C@H](CCC(=O)O)NC(=O)[C@H](CO)NC(=O)[C@@H](NC(=O)[C@@H](N)CO)C(C)C)C(=O)N[C@@H](CCC(N)=O)C(=O)N[C@@H](CC(C)C)C(=O)N[C@@H](CCSC)C(=O)N[C@@H](Cc1c[nH]cn1)C(=O)N[C@@H](CC(N)=O)C(=O)N[C@@H](CC(C)C)C(=O)NCC(=O)N[C@@H](CCCCN)C(=O)N[C@@H](Cc1c[nH]cn1)C(=O)N[C@@H](CC(C)C)C(=O)N[C@@H](CC(N)=O)C(=O)N[C@@H](CO)C(=O)N[C@@H](CCSC)C(=O)N[C@@H](CCC(=O)O)C(=O)N[C@@H](CCCNC(=N)N)C(=O)N[C@H](C(=O)N[C@H]1CCC(=O)NCCCC[C@@H](C(=O)N[C@@H](Cc2ccc(O)cc2)C(=O)N[C@@H](CC(C)C)C(=O)N[C@@H](CCC(N)=O)C(=O)N[C@@H](CC(=O)O)C(=O)N[C@H](C(N)=O)C(C)C)NC(=O)[C@H](CCCNC(=N)N)NC(=O)[C@H](CC(C)C)NC(=O)[C@H](Cc2c[nH]c3ccccc23)NC1=O)C(C)C) [[Tyr^27]cyclo(Glu^22-Lys^26)-hPTH-(1-31)-NH2]	9	
SVSEIQLMHNLGKHLNSMERVEWLRKILQDV-NH2 (lactam 22-26; N-terminus assumed; SMILES CC[C@H](C)[C@H](NC(=O)[C@@H]1CCCCNC(=O)CC[C@H](NC(=O)[C@@H](NC(=O)[C@H](CCCNC(=N)N)NC(=O)[C@H](CCC(=O)O)NC(=O)[C@H](CCSC)NC(=O)[C@H](CO)NC(=O)[C@H](CC(N)=O)NC(=O)[C@H](CC(C)C)NC(=O)[C@H](Cc2c[nH]cn2)NC(=O)[C@H](CCCCN)NC(=O)CNC(=O)[C@H](CC(C)C)NC(=O)[C@H](CC(N)=O)NC(=O)[C@H](Cc2c[nH]cn2)NC(=O)[C@H](CCSC)NC(=O)[C@H](CC(C)C)NC(=O)[C@H](CCC(N)=O)NC(=O)[C@@H](NC(=O)[C@H](CCC(=O)O)NC(=O)[C@H](CO)NC(=O)[C@@H](NC(=O)[C@@H](N)CO)C(C)C)[C@@H](C)CC)C(C)C)C(=O)N[C@@H](Cc2c[nH]c3ccccc23)C(=O)N[C@@H](CC(C)C)C(=O)N[C@@H](CCCNC(=N)N)C(=O)N1)C(=O)N[C@@H](CC(C)C)C(=O)N[C@@H](CCC(N)=O)C(=O)N[C@@H](CC(=O)O)C(=O)N[C@H](C(N)=O)C(C)C) [[Ile^27]cyclo(Glu^22-Lys^26)-hPTH-(1-31)-NH2]	9	
